Assay: soluble on expression in E. coli; label from the status in PepcDB or PDB records

Sequence | soluble on expression in E. coli
MSLKPDNLPVTFGKNDVEIIARETLYRGFSSLDLYRFRHRLFNGQMSHEVRREIFERGHAAVLLPFDPVRDEVVLIEQIRIAAYDTSETPWLLEMVAGMIEEGESVEDVARREAIEEAGLIVKRTKPVLSFLASPGGTSERSSIMVGEVDATTASGIHGLADENEDIRVHVVSREQAYQWVEEGKIDNAASVIALQWLQLHHQALKNEWAEGGSHHHHHH | soluble
MSLKPRVVDFDETWNKLLTTIKAVVMLEYVERATWNDRFSDIYALCVAYPEPLGERLYAETKIFLESHVRHLYRYWEEYSKGADYMDCLYRYLNTQYIKKNKLTEADIQYGYGGVDMNEPLMEIGELALDMWRKLMVEPLQNILIRMLLREIKNDRGGEDPNQKVIHGVINSFVHVEQYKKKFPLKFYQGIFVSPFLTETGEYYKQEASNLLQESNCSQYMEKVLGRLKDEEIRCRKYLHPSSYTKVIHECQQRMVADHLQFLHSECHSIIQQERKNDMANMYVLLRAVSSGLPHMIEELQKHIHDEGLRATSNLTQEHMPTLFVESVLEVHGKFVQLINTVLNGDQHFMSALDKALTSVVNYREPKSVCKAPELLAKYCDNLLKKSAKGMTENEVEDKLTSFITVFKYIDDKDVFQKFYARMLAKRLIHGLSMSMDSEEAMINKLKQACGYEFTSKLHRMYTDMSVSADLNNKFNNFIRNQDTVIDLGISFQIYVLQAGAWPLTQAPSSTFAIPQELEKSVQMFELFYSQHFSGRKLTWLHYLCTGEVKMNYLGKPYVAMVTTYQMAVLLAFNNSETVSYKELQDSTQMNEKELTKTIKSLLDVKMINHDSEKEDIDAESSFSLNMSFSSKRTKFKITTSMQKDTPQELEQTRSAVDEDRKMYLQAAIVRIMKARKVLRHNALIQEVISQSRARFNPSISMIKKCIEVLIDKQYIERSQASADEYSYVA | soluble
MSLKPVIGITGNRLVKGVDVFYGHRVTYTQQRYVDAIQKVGGFPIALPIDDPSTAVQAISLVDGLLLTGGQDITPQLYLEEPSQEIGAYFPPRDSYEIALVRAALDAGKPIFAICRGMQLVNVALGGTLYQDISQVETKALQHLQRVDEQLGSHTIDIEPTSELAKHHPNKKLVNSLHHQFIKKLAPSFKVTARTADGMIEAVEGDNLPSWYLGVQWHPELMFQTDPESEQLFQALVDESKKTMVKEGHHHHHH | soluble
MSLKPVKPPRINGRVPVLSAQEAVNYIPDEATLCVLGAGGGILEATTLITALADKYKQTQTPRNLSIISPTGLGDRADRGISPLAQEGLVKWALCGHWGQSPRISELAEQNKIIAYNYPQGVLTQTLRAAAAHQPGIISDIGIGTFVDPRQQGGKLNEVTKEDLIKLVEFDNKEYLYYKAIAPDIAFIRATTCDSEGYATFEDEVMYLDALVIAQAVHNNGGIVMMQVQKMVKKATLHPKSVRIPGYLVDIVVVDPDQTQLYGGAPVNRFISGDFTLDDSTKLSLPLNQRKLVARRALFEMRKGAVGNVGVGIADGIGLVAREEGCADDFILTVETGPIGGITSQGIAFGANVNTRAILDMTSQFDFYHGGGLDVCYLSFAEVDQHGNVGVHKFNGKIMGTGGFIDISATSKKIIFCGTLTAGSLKTEITDGKLNIVQEGRVKKFIRELPEITFSGKIALERGLDVRYITERAVFTLKEDGLHLIEIAPGVDLQKDILDKMDFTPVISPELKLMDERLFIDAAMGFVLPEAAHEGGSHHHHHH | soluble
MSLKQIVGHKLLNDVIRPLKKGDGRSAWNVLIVDTLAMRMLSSCCKMHNIMEEGITIVEDLNKRREPLPTLEAIYLIAPTAESIDKLIQDYCARNLYKCAHVFFTEACSDQLFSTLSKSAAARFIKTLKEINIAFTPYESQVFNLDSPDTFFLYYNAQKQGGLTSNLERIAEQIATVCATLGEYPSLRYRADFERNVELGHLVEQKLDAYKADDPSMGEGADKARSQLIIIDRGYDAITPLLHELTLQAMCYDLLGIENDVYKYETGGSDENLEKEVLLDENDDLWVEMRHKHIAVVSQEVTKNLKKFSESKGNKGTMDSKSIKDLSMLIKRMPQHKKELNKFSTHISLAEECMKQYQQGVDKLCKVEQDLSTGIDAEGERVRDAMKLMVPLLIDPAVRCEDRLRLILLYILSKNGITDENLNKLLQHANISMADKETITNAAYLGLNIVTDTGRKKTWTPTKKERPHEQVYQSSRWVPVIKDIIEDAIDERLDTKHFPFLAGRQVNQGYRAPASARYGQWHKERGQQSNYRSGPRLIIYIIGGVTFSEMRACYEVTAARKPWEVVIGSDRIITPDKFLTNLRDLNKPRDI | not soluble
MSLKQVPDVNKIKFDPETKRIVRKDVPLMMNSFDKKAVEEAIRISERHGWETCVATMGPPQAVEVINEALRMGIERGYLITDPSLANSDTLITSRVLAAFALRYGPDLVLMGKYSLDGETSQVPAEVSALMGWPYVPSVSKIMISDHLELEQELENGIYTCSAPLPCVLSLSEKINRARAIKPDTPQMYDRIVQIDTKWLGLDLDGGRDSPTAVIGTEQVNSNRSPVFIDPGADMYRQIMEIIRVSRKNDRMKTIDLNYAEFRGEAWAIAIDSENASLEIASKVADIASENSFYVRVIGNVEFSDPRSVPAHHVDIISGTDAVGLSYYIVDEIKKHSPEFLIFPSTVTGRQISSLVAARFGLGLTADCVDLSYGDRGLLQYKPAFGGGVIAEIISRKKPAMATARPGMFRKVKVNIEPSISHMSLDPAGRIRYGQFIPVPQEFKPLEGSRLILGIGRGLKRKEDLPKIMELASMLGASVGGSRPIVDMNYIPRQQQIGLTGSAVSPDVYIALGISGQDNHIVGLRYARKIIAVNTDRNAPIFRYSDYGIIMDLMQFVEGFLHFLNAEGHHHHHH | not soluble
MSLKQYLITGGTGMVGSQLVNEIKKSDSHITILTRHDQISNDKKISYVNWAKSGWEHKVPQNIDVVINLAGATLNKRWTPEYKQTLMLSRIQSTQALYELFKSRNKAPKVLFNASATGYYPPDLFMSYTEVYKTLPFDFLSDIVYQWERFAQQFEQLGTRVVIGRFGMILSNEGGALQTMKLPYKYYIGGKLGSGQQWYSWIHINDLIQAILFLINNESASGPFNLTAPIPERQNLFGYTLARAMHKPHETWAPSLAMRLILGQMSTVVLDTQKVLPNKIQALGFQFKYSNLKMALEDLIKEGHHHHHH | soluble
MSLKRFIDDHRDVHGVEPICKVLPIAPSTYYAHAARRSDPELRSARAKTDEALMPEIRRVWDENFQVYGVRQLWRQMRREQFAVARCTVQRLMKRQGLRGVIRGKAVRTTVSDAKAPCPLDHVNRQFTSDRPNALWVSDFTDVSTWQGWICVAFVIDVFARRIVGWKASPSMRTELVLDALEQALHARKPVGSERMIHHSDRGVQYVSIRYTERLAEAGLEPSVGSVSDSYDNALAETINGLCKAEVIHRKSSWRTREEVEWATLTWVDWFNNRRVLEPIGNIPPAEAEANYYLISPDLQLQHLRAYREGHHHHHH | soluble
MSLKRIKTVLAATDLSAPARHAAMRAALLAGQTDAKLGLLHVVDLQLMEHLRSFAGRSGEAAERRLIGEAMKELERLATDMTHRWGSAVEVRLVVGAVLKEIVAHADTLDADLLVMGARGAGFVRELLLGSTTERVLRLITRPVLMVKQIPHGPYQRVLVAVDFSERSVAALRLARWVAPEAHFVVLNAFQPPLENKLRQGGADEFEIMELRDAARRDADARMDEVMAHAGFPAERLTRLVLPGPALDCVLEQEQEQDCDLIVVGKHGYGWIEEMLLGSLTKHLLALSSCDVLVASQSREGHHHHHH | soluble
MSLKRLTSRRQKGGGCPDLTIRAHHLLCMRGFQGYGYSEEFTENLARIIHEIKGNPSAFLMIVDFPDDICRACPFMDGLRCLRDEERIRSMDRRVLELLKLESGCMVTFHDIEDALLALITSGKIMEICGECSWMDLCLIHREGHHHHHH | not soluble
MSLKRTITPVHEVQTEWVHLHYAESSIFKEVYGFVGTQGTVNLEGVRYTPVGRPSKTLLVFMHPASTLQLLPMPRELARHGAHVLCAGSRYQRNDSALIMENVVVDLGAYIRHAKEVWKYEKVVLVGWSGGGSLSLLYQSQAENPTISTTPAGDPCSIKQAGLMPADAFIFQAAHTGRARMLSEWIDPSVLDENDPDRIDPGLNLYATTCRPPYSADFLAAFRAGQRARLRRRTAWVKETLETLRRKGGQEVERGFVTHRTMADPRFLDPTIEPNDRPIGRCFMGIPETVNNGPVGIARFSTLRAWLSQWSPDDSNADGVTCAKSLTVPFLAIEHSADDAVPQSHVRQVFEAASATDKSMTVLQGATHYFLGQPEMLQQAATICLDWLAERGLHDEGHHHHHH | soluble
MSLKSIFISGAANGIGKAVALKFLHEGWLVGAYDLAEITYSHPNLRWGYLNVRQSESWDKALEDFATHTGGTIDVVDNNAGVIIEGPLQDAEEGSVDKLLAINVNGVTLGARAAHPYLARTPGAQLLNMSSASAVYGQPQIAVYSASKFYVAGLTEALNLEWRKDDIRVVDVWPLWAKTDLVNGVKAKSLKRLGVRITPEQVAQAVWDAVHPKSRWAKGKVHHGVSKLDKALYLMKSLSPDRVAMCFARLIAGEGHHHHHH | soluble
MSLKTELTLLEQTLTLHRFPKRNNETLQAWDAGDEYLIQHVEQLALPESSHIVIINDHFGTLSCWFSQKHKVSMMSDSYIAHQATQANLQQNQRPPVQLLTTLDPVPNDASVVLLQLPKSNRHLVWILSQLRKALSPNIPIIAVNKAKEIHTSTLNLFEKHLGPTTTSLAWKKHRLVFSSATVNPANEVNPECGWSIEPYAITLTNLPNVYSGESLDLGSRFILEHLPADPTLEDFIDLGCGNGVLSVRLGQLNPQAKITCVDESFMAIASAQKNLHDNLGKRDIHCIANNCLDGFPAHSSSMIVCNPPFHQQQTITDHIAWQMFCDSKHVLKKGGKLWVIGNRHLGYDVKLARLFGKSHVRVIANNSKFVILQAIKSEGHHHHHH | soluble
MSLKVAVIGAGAMGGLYGAYLSRKNDVYMIDINEKVVKSINENGLIIYERENNKKEKFLVSAFTDSSNLGPMDLVIIFVKNLYTTSALKNNLNLFSDSTLVITLQNGAGNDRDLEKFIKKENILIGTTEHSCSILETGEVSHNQEGITNIGMLVYNDNIIKRISDEFKACSLKTEVYQNIQEIIWSKLFINMALNSTTAILNCKVGYLEKSKDASEIVQSILSEAVDVAIADGTFFNKKEVIDKVQKCIREDLPNAITSMNQDVSNKRLTEIDHINGAVANLAKLYKIPTPYNDCIIHIIHALEGLYNEGHHHHHH | soluble
MSLKVKRPFDAYLDEMNKITILLPHAYGTSRTFRLQEGSNVKDLPIAHTIALPDATKYECFIEEPLDVGKYYTVRDERNEETDLQIGAVIRTAIFDEKYYYEGTDLGAVHQKEATTFKVWAPTARLAKVRIYKSDKEYTDYEMYREENGVWAHTLHGDLAGEKYTFLVCINLIWNEAVDPYAKSVTVNGKYGVVIDLEKTNVTKRGQLPPLQAMTDAILYELHIRDATIHPGSGVSKKGTYKGLMEEGTTGRNGTLTGLSHIKDLGVTHVELLPLYCFGGVDEANPSSAYNWGYNPLYYNAPTGYYATNPSDPYNRIVECKQLIETFHEHGIRVIIDVVYNHVYERELSSFEKLVPGYYFRHGENGMPSNGTGVGNDIASERKMMRKFIVESILYWLTEYNVDGFRFDLMGILDVDTINIIEKEVRNIKRDALLLGEGWDLQTPLPLEEKATLNNAKKMPHIAQFNDQFRDGIKGSTFHINKRGFAFGGYVDCNHLQYIASGSLLSMKETGLFLEPVQSINYVECHDNMTMWDKLMRSNEESEEILKKRHLLATAMVILSQGIPFLHAGQEFYRTKQGNENSYNANDEINQLDWDRKEKEIETVNYIKGLIAIRKEHGAFRLQNADLIKKHMTFLQTSPEVLAYHLEHVESFGPWKEIVVLFNSSLEAKTVQLPKEETWHVLVNEKQAKIEPISSFRGKELRLAPISTYILTIMEGHHHHHH | soluble
MSLKVVIGYLALDDWEFESLFPTIEWKYLTHINASFARVKADGTLNINPVRKRIESVRETAHKHNVKILISLAKNSPGEFTTAINDPKARKELIQQIIAFTKEYKLDGFDIDYEEYDNWDKNFPSLLVFARGLYLAKEKNMLMTCAVNSRWLNYGTEWEQYFDYINLMSYDRGAFTDKPVQHASYDDFVKDLKYWNEQCRASKSKIVGGLPFYGYSWEESLQGAVDDVRGIRYSGILKHLGNEAADKDNIGKTYYNGRPTIANKCKFIKENDYAGVMIWQLFQDAHNDNYDLKLINVVGREMMEEGHHHHHH | soluble

Reference: the DeepSol protein solubility set
